Data on three substances can be found in publication PMC3797752.

For assay [1], the target named is 22-mer tyrosine-sulfated biotinylated N-terminal CCR5 peptide. Nature of the assay: SPR; qualitative; ~5000 RU of biotinylated CCR5 peptide on an SA chip; 100 nM gp120 proteins injected at 10 µl/min, alone or pre-incubated with 2-fold molar excess of sCD4; 25°C; HBS-EP buffer; compared at time = 300 s.
A further assay has as its target soluble CD4 (sCD4) (UniProt P01730). As to the kind of experiment: SPR; BIAcore 3000; ~200 RU of sCD4 or mAb immobilised directly on a CM5 chip via amine coupling; varying concentrations of gp120 injected at 80 µl/min; 25°C; HBS-EP buffer; 1:1 Langmuir fit.
Assay [2] concerns the target wild-type SF162 gp140 (cleavage-defective) (HIV-1 SF162). As to the kind of experiment: not stated; oligomeric state of the purified glycoproteins; method not given.

In assay [1], “gp120+sCD4 (sCD4-liganded, wild-type gp120) (from UniProt P01730) (complex)” displayed a fold better binding than gp120 above 10 fold. wild-type SF162 gp120 (natural protein) returned a Kd with soluble CD4 (sCD4) of 24.5 nM. With “wild-type SF162 gp140 (cleavage-defective) (natural protein)”, in assay [2], the stoichiometry N turned out to be 3.
